Target: human skeletal myosin IIa subfragment-1 (S1), oligonucleotide-labeled, on DNA origami-based thick filament (human)
Assay: high-speed atomic force microscopy

Q: Which results are given for “actin filament (from UniProt P68135 1-377) (natural protein)”?
A: duty ratio: 0.87; mean detachment time: 0.17 s; time constant of the attachment time: 1.1 s; time constant of the detachment time (fast): 0.063 s; time constant of the detachment time (slow): 0.68 s
